Experimental data: doi:10.1101/2021.09.22.461404 (bioRxiv, 2021)

Biological target: the molecule itself
Assay: crystal structure

B1: closed-gate E71V KcsA (C-terminal tail removed by chymotrypsin) (domain or fragment)
chain: PMLSGLLARLVKLLLGRHGSALHWRAAGAATVLLVIVLLAGSYLAVLAERGAPGAQLITYPRALWWSVVTATTVGYGDLYPVTLWGRLVAVVVMVAGITSFGLVTAALATWFVGREQERRGH
stoichiometry N: 4
